Reference: PMC4044012, “Genome-Based Discovery of a Novel Membrane-Bound 1,6-Dihydroxyphenazine Prenyltransferase from a Marine Actinomycete” (PLoS ONE, 2014)

T1: Mpz10 (Streptomyces sp. SpC080624SC-11, UniProt A0A068CM06)
T1 construct: NcoI/EcoRI in pET-28a(+) (pPH23), apparently untagged; E. coli Rosetta2(DE3)pLysS membrane fraction
T1 sequence (A0A068CM06 1-331): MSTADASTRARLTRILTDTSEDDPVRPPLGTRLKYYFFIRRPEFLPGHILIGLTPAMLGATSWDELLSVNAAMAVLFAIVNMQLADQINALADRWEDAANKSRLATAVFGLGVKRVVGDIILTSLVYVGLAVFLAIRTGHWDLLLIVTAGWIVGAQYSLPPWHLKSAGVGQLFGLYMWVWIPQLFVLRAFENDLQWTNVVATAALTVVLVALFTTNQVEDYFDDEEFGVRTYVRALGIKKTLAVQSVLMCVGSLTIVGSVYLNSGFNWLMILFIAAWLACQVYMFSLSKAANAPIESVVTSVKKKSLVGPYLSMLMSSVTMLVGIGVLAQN


Tests used:
Experiment in all cases: prenyltransferase assay with E. coli membrane fraction, HPLC-UV product quantification
Mpz10 = target: T1, Mpz10; type: biochemical; conditions: read-out: apparent Km; DMAPP co-substrate, 10 mM MgCl2, 50 mM Tris-HCl pH 8.1, 30°C
[1] = substrate: CC(C)=CCOP(=O)(O)OP(=O)(O)O; type: biochemical, Streptomyces sp. SpC080624SC-11; conditions: 0.2 mM 1,6-dihydroxyphenazine constant, 10 mM MgCl2, 50 mM Tris-HCl pH 8.1, 30°C
[2] = substrate: Oc1cccc2nc3c(O)cccc3nc12; type: biochemical, Streptomyces sp. SpC080624SC-11; conditions: 0.5 mM DMAPP constant, 10 mM MgCl2, 50 mM Tris-HCl pH 8.1, 30°C

Molecule	Km (Mpz10)	Km [1]	Km [2]
Oc1cccc2nc3ccccc3nc12 [1-hydroxyphenazine]	9.8 µM	–	–
Mpz10 (Streptomyces sp. SpC080624SC-11) (protein, NcoI/EcoRI in pET-28a(+) (pPH23), apparently untagged; E. coli Rosetta2(DE3)pLysS membrane fraction) MSTADASTRARLTRILTDTSEDDPVRPPLGTRLKYYFFIRRPEFLPGHILIGLTPAMLGATSWDELLSVNAAMAVLFAIVNMQLADQINALADRWEDAANKSRLATAVFGLGVKRVVGDIILTSLVYVGLAVFLAIRTGHWDLLLIVTAGWIVGAQYSLPPWHLKSAGVGQLFGLYMWVWIPQLFVLRAFENDLQWTNVVATAALTVVLVALFTTNQVEDYFDDEEFGVRTYVRALGIKKTLAVQSVLMCVGSLTIVGSVYLNSGFNWLMILFIAAWLACQVYMFSLSKAANAPIESVVTSVKKKSLVGPYLSMLMSSVTMLVGIGVLAQN	–	153 µM	53 µM
